Legend:
[1] = target: T1, MOR1D (endogenous, mouse spinal cord) (mouse, UniProt P42866-9 1-393); assay: co-IP with anti-MOR1D antibody from spinal cord membrane preparation, immunoblot for GRPR
T1 construct: Untagged native receptor in spinal cord membrane preparations and sections; MOR1D is a splice isoform of it; also called spinal MOR1D

[2] = target: T2, MOR1 (endogenous, mouse spinal cord) (mouse, UniProt P42866 1-398); assay: co-IP with anti-MOR1 antibody from spinal cord membrane preparation, immunoblot for GRPR
T2 construct: Untagged native receptor; precipitated with a rabbit anti-MOR1 antibody (Neuromics)
T2 sequence (P42866 whole entry): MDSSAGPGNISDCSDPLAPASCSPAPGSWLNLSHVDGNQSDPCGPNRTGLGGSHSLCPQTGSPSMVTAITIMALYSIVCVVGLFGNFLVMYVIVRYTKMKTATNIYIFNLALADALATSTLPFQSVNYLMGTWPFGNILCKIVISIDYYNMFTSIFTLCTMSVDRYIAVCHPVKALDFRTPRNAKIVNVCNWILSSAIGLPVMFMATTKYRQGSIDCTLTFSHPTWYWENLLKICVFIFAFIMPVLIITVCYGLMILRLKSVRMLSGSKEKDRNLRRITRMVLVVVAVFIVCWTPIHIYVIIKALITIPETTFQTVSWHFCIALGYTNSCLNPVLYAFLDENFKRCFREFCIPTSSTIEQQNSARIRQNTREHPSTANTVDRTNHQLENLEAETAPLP

T1 sequence (P42866 1-386, tags or fused parts left off): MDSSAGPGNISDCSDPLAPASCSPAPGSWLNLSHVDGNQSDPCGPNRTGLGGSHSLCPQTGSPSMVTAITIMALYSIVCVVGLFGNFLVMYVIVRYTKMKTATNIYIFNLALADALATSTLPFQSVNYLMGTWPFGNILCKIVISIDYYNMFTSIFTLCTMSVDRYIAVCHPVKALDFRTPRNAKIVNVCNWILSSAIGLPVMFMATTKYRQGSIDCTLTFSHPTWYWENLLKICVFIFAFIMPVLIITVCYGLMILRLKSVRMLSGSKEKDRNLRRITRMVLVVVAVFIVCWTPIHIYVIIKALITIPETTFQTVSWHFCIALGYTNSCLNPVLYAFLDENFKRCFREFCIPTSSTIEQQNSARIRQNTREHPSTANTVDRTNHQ

binding result [1]: binds | binding result [2]: no binding
B1: GRPR (endogenous, mouse spinal cord) (receptor, UniProt P21729 1-384, looked up)
chain: MAPNNCSHLNLDVDPFLSCNDTFNQSLSPPKMDNWFHPGFIYVIPAVYGLIIVIGLIGNITLIKIFCTVKSMRNVPNLFISSLALGDLLLLVTCAPVDASKYLADRWLFGRIGCKLIPFIQLTSVGVSVFTLTALSADRYKAIVRPMDIQASHALMKICLKAALIWIVSMLLAIPEAVFSDLHPFHVKDTNQTFISCAPYPHSNELHPKIHSMASFLVFYVIPLAIISVYYYFIARNLIQSAYNLPVEGNIHVKKQIESRKRLAKTVLVFVGLFAFCWLPNHVIYLYRSYHYSEVDTSMLHFVTSICARLLAFTNSCVNPFALYLLSKSFRKQFNTQLLCCQPGLMNRSHSTGRSTTCMTSFKSTNPSATFSLINRNICHEGYV
notes: Untagged native receptor in spinal cord membrane preparations; also called gastrin-releasing peptide receptor

Source: US20130065832A1 (WASHINGTON UNIVERSITY, published 2013)
